Experimental findings from PMC5667893, “TRIM5α SPRY/coiled-coil interactions optimize avid retroviral capsid recognition” (PLoS Pathogens, 2017) are described below.

Where a chain is given by its changes, count along the chain named. Names may count otherwise.

For series [1], the target named is disulfide-stabilized HIV-1 CA tubes (HIV-1). The series is described as follows: co-sedimentation; purified TRIM5-21R (5 μM) incubated with disulfide-stabilized HIV-1 CA tubes, fractionated by centrifugation, load, soluble and pellet fractions on SDS-PAGE with Coomassie staining, densitometry; done right after purification.
Series [2] has as its target TRIM5-21R F187A (human | rhesus). Description: anion exchange chromatography + SEC; relative fractions of monomer and dimer of TRIM5-21R proteins during purification; linear salt gradient; dimer to monomers.
Series [3] concerns the target TRIM5-21R L190A (human | rhesus). Described as above.
Series [4] concerns the molecule itself. The series is described as follows: SEC-MALS; purified CC-L2 proteins, 50 μL injected at 0.5–1 mg/mL; dimer to monomers. Background: SEC sorts molecules by how far they enter the pores of the column.

In the case of TRIM5-21R D186A, in series [1], the percent in the pellet with the CA tubes was 36%.

In series [1], “TRIM5-21R (rhesus TRIM5α with its RING domain replaced by that of human TRIM21), wildtype” gave a percent co-pelleted with the CA tubes of 50%.

The molecule TRIM5-21R L194A gave a percent in the pellet with the CA tubes in series [1] of 29%.

As to TRIM5-21R E197A, the percent in the pellet with the CA tubes in series [1] was 61%.

TRIM5-21R F187A: in series [2], the monomer fraction of the total protein is > 50%.

TRIM5-21R L190A: the monomer fraction of the total protein in series [3] is > 50%. In series [1], this molecule returned a percent in the pellet with the CA tubes of 34%.

B1: CC-L2 fragment of rhesus TRIM5α (residues 133–300) E197A (domain or fragment, UniProt Q0PF16 133-300, looked up)
chain: MEEVAQEYHVKLQTALEMLRQKQQEAEKLEADIREEKASWKIQIDYDKTNVSADFEQLREILDWAESNELQNLEKEEEDILKSLTKSETEMVQQTQYMRELISELEHRLQGSMMDLLQGVDGIIKRIENMTLKKPKTFHKNQRRVFRAPDLKGMLDMFRELTDARRYW
notes: TRIM5α, rhesus, coiled-coil and L2 linker, residues 133-300; dimeric with a trailing shoulder of monomer by SEC-MALS; also called CC-L2 E197A; source: E. coli BL21(DE3), autoinduction, purified (Ni-NTA, anion exchange, size exclusion); not shown: His, N-terminal, cleaved; SUMO, N-terminal, cleaved
On to B1, for which the “stoichiometry N” value in series [4] was 2.

B2: CC-L2 fragment of rhesus TRIM5α (residues 133–300) I193A (domain or fragment, UniProt Q0PF16 133-300, looked up)
chain: B1 chain with I61A, A65E
notes: TRIM5α, rhesus, coiled-coil and L2 linker, residues 133-300; also called CC-L2 I193A; source: E. coli BL21(DE3), autoinduction, purified (Ni-NTA, anion exchange, size exclusion); not shown: His, N-terminal, cleaved; SUMO, N-terminal, cleaved
For B2, the “stoichiometry N” value in series [4] came out at 2.

B3: CC-L2 fragment of rhesus TRIM5α (residues 133–300) E201A (domain or fragment, UniProt Q0PF16 133-300, looked up)
chain: B1 chain with A65E, E69A
notes: TRIM5α, rhesus, coiled-coil and L2 linker, residues 133-300; also called CC-L2 E201A; source: E. coli BL21(DE3), autoinduction, purified (Ni-NTA, anion exchange, size exclusion); not shown: His, N-terminal, cleaved; SUMO, N-terminal, cleaved
As to B3, the “stoichiometry N” value in series [4] turned out to be 2.

B4: CC-L2 fragment of rhesus TRIM5α (residues 133–300) D186A (domain or fragment, UniProt Q0PF16 133-300, looked up)
chain: B1 chain with D54A, A65E
notes: TRIM5α, rhesus, coiled-coil and L2 linker, residues 133-300; also called CC-L2 D186A; source: E. coli BL21(DE3), autoinduction, purified (Ni-NTA, anion exchange, size exclusion); not shown: His, N-terminal, cleaved; SUMO, N-terminal, cleaved
B4: in series [4], the “stoichiometry N” value was determined as 2.

B5: CC-L2 fragment of rhesus TRIM5α (residues 133–300), wildtype (domain or fragment, UniProt Q0PF16 133-300, looked up)
chain: B1 chain with A65E
notes: TRIM5α, rhesus, coiled-coil and L2 linker, residues 133-300; His-SUMO leader cleaved with Ulp1 protease; also called TRIM5α_(133–300); wildtype control; source: E. coli BL21(DE3), autoinduction, purified (Ni-NTA, anion exchange, size exclusion); not shown: His, N-terminal, cleaved; SUMO, N-terminal, cleaved
For B5, the “stoichiometry N” value in series [4] was determined as 2.

What is called stoichiometry N is a count of units in the complex or per binding partner.
